The values that follow come from patent publication US6759384 (AVENTIS PHARMACEUTICALS, dated 2004).

This test concerns the target human factor Xa (Enzyme Research Laboratories, Inc.) (human, UniProt P00742 41-179; P00742 235-488, limits assumed). In words: chromogenic FXa inhibition. Put shortly: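 Human FXa (0.5 nM) preincubated 10 min with inhibitor in TBS-P (pH 7.8, 200 mM NaCl, PEG-8000), then S-2765 added (140 μM). Initial hydrolysis rate read at 405 nm, 25° C.; IC50 by linear regression of relative rate vs log concentration.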

Starred links: 1 amine or outer side, 2 acyl side, 3 side chain; linkers in the order of their positions; H or OH if unused. Non-standard residues stand in square brackets, D forms with d. No end group written: not given here. *: point of attachment. (iBu)Y = N-alpha-isobutyl-tyrosine, CC(C)CN([C@@H](Cc1ccc(O[*:3])cc1)C(=O)[*:2])[*:1]; Orn(N^δ-C3H7N) = ornithine-derived dimethylamidinium (N-delta-C3H7N); Dab(N^γ-C3H7N) = Dab-derived dimethylamidinium (N-gamma-C3H7N); dTyr(Me) = COc1ccc(C[C@@H](N[*:1])C(=O)[*:2])cc1; dNMeY = CN[C@H](Cc1ccc(O)cc1)C(=O)O; Tos = Cc1ccc(S(=O)(=O)*)cc1; Tfa = O=C(C(F)(F)F)*; Sar = CNCC(=O)O A value given as a limit tells only on which side of the number the result lay.

Sequence of human factor Xa (Enzyme Research Laboratories, Inc.) (P00742 41-179 limits assumed, chain 1 of 2): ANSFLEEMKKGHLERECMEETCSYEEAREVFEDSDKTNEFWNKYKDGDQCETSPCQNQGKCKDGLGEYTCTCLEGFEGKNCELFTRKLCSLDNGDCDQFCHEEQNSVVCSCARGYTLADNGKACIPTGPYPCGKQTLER
Sequence of human factor Xa (Enzyme Research Laboratories, Inc.) (P00742 235-488 limits assumed, chain 2 of 2): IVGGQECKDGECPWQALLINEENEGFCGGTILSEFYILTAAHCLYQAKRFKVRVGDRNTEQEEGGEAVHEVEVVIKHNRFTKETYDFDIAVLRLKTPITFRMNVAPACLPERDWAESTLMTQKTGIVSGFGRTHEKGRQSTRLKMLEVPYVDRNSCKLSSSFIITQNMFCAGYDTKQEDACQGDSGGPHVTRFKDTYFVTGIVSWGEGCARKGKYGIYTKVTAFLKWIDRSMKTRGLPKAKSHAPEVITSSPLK

By Ki is commonly meant the dissociation constant of the complex between target and ligand, obtained from inhibition or displacement. A high value points to lower affinity. Regarding XIRLP (Y1=Y(3,5-Br); C-term NH2) [Y(3,5-Br)-I-R-L-P-NH2], the inhibitory constant (Ki) was less than 100 µM.

In turn, YIREFSDY-NH2 [Y-I-R-E-F-S-D-Y-NH2] came in with a Ki of less than 100 µM.

For the molecule YIRLAA-NH2 [Y-I-R-L-A-A-NH2], the Ki was less than 100 µM.

B1: Tos-G-I-R-V-Sar-NH2 (peptide)
peptide: Tos-GIRV[Sar]-NH2
SMILES: CC[C@H](C)[C@H](NC(=O)CNS(=O)(=O)c1ccc(C)cc1)C(=O)N[C@@H](CCCNC(=N)N)C(=O)N[C@H](C(=O)N(C)CC(N)=O)C(C)C
Molecule B1 gave a Ki of less than 100 µM.

Consider XIRLP (N-(3,3-DiMe-nBu) on Y1; C-term NH2) [(3,3-DiMe-nBu)Y-I-R-L-P-NH2], for which the Ki was less than 100 µM. Then YIRLAAFT-NH2 [Y-I-R-L-A-A-F-T-NH2], with less than 100 µM; and XIRLP (N-term Ac; N-(2-CF3-Bzl) on Y1; C-term NH2) [Ac-(2-CF3-Bzl)Y-I-R-L-P-NH2], with less than 100 µM. YIRLTKMW-NH2 [Y-I-R-L-T-K-M-W-NH2]: the inhibition constant (Ki) is less than 100 µM. On to XIRLP (N-(2-Et-nBu) on Y1; C-term NH2) [(2-Et-nBu)Y-I-R-L-P-NH2], for which the Ki is less than 100 µM. YRYPRDRN-NH2 [Y-R-Y-P-R-D-R-N-NH2]: the Ki was less than 100 µM. Tfa-YIRLP-NH2 [Tfa-Y-I-R-L-P-NH2] showed a Ki of less than 100 µM. Then YLRFP-NH2 [Y-L-R-F-P-NH2], with less than 100 µM. With YIRVMNHR-NH2 [Y-I-R-V-M-N-H-R-NH2] the figure was less than 100 µM; with XIRLP (N-term Ac; N-(2,3-DiMe-nPentyl) on Y1; Y1=Y(SO3H); C-term NH2) [Ac-(2,3-DiMe-nPentyl)Y(SO3H)-I-R-L-P-NH2], less than 100 µM. In turn, XIRLP (N-term Ac; N-(2-CF3-Bzl) on Y1; Y1=Y(SO3H); C-term NH2) [Ac-(2-CF3-Bzl)Y(SO3H)-I-R-L-P-NH2] gave a Ki of less than 100 µM. In turn, {Ph‑CH2CH2CO}-IRLA-NH2 [Ph-CH2CH2CO-I-R-L-A-NH2] came in with a Ki of less than 100 µM.

[dNMeY]IRLP-NH2 [(Me)y-I-R-L-P-NH2] had an inhibitory constant (Ki) of less than 100 µM.

XIRLP (N-(Chx-CH2) on Y1; C-term NH2) [(Chx-CH2)Y-I-R-L-P-NH2] yielded a Ki of less than 100 µM. As for WIRNP-NH2 [W-I-R-N-P-NH2], the inhibitory constant (Ki) is less than 100 µM. WIRTP-NH2 [W-I-R-T-P-NH2]: the Ki was less than 100 µM. Molecule XIRLP (N-term Ac; N-(2,3-DiMe-nPentyl) on Y1; C-term NH2) [Ac-(2,3-DiMe-nPentyl)Y-I-R-L-P-NH2] registered an inhibition constant Ki of less than 100 µM. YIRYRNPI-NH2 [Y-I-R-Y-R-N-P-I-NH2] gave a Ki of less than 100 µM. SYIRLP-NH2 [S-Y-I-R-L-P-NH2] had a Ki of less than 100 µM. Molecule XIRLP (N-term Ac; N-(2Et-nBu) on Y1; C-term NH2) [Ac-(2Et-nBu)Y-I-R-L-P-NH2] displayed a Ki of less than 100 µM.

In turn, YIRLPGLL-NH2 [Y-I-R-L-P-G-L-L-NH2] registered a Ki of less than 100 µM. As for Tfa-[dY]IRLP-NH2 [Tfa-y-I-R-L-P-NH2], the inhibitory constant (Ki) was less than 100 µM. Then XIRLP (Y1=Y(3,5-I); C-term NH2) [Y(3,5-I)-I-R-L-P-NH2], with less than 100 µM.

Consider TFGYIRKA-NH2 [T-F-G-Y-I-R-K-A-NH2], for which the inhibition constant (Ki) was less than 100 µM. In turn, XIRLP (N-(2-CF3-Bzl) on Y1; C-term NH2) [(2-CF3-Bzl)Y-I-R-L-P-NH2] came in with a Ki of less than 100 µM.

B2: w-L-R-L-A-NH2 (peptide)
peptide: [dW]LRLA-NH2
modifications: N-terminus assumed
SMILES: CC(C)C[C@H](NC(=O)[C@H](N)Cc1c[nH]c2ccccc12)C(=O)N[C@@H](CCCNC(=N)N)C(=O)N[C@@H](CC(C)C)C(=O)N[C@@H](C)C(N)=O
B2 came in with a Ki of less than 100 µM.

Molecule XIRLP (N-term Ac; N-(1,2,3,6-4H-Bzl) on Y1; C-term NH2) [Ac-(1,2,3,6-4H-Bzl)Y-I-R-L-P-NH2] had an inhibition constant Ki of less than 100 µM. Consider WFREMGGGGG-NH2 [W-F-R-E-M-G-G-G-G-G-NH2], for which the Ki was less than 100 µM. WLRLAGGGGG-NH2 [W-L-R-L-A-G-G-G-G-G-NH2] gave a Ki of less than 100 µM.

For WLRVAGGGGG-NH2 [W-L-R-V-A-G-G-G-G-G-NH2], the Ki was less than 100 µM. Then YIRL-NH2 [Y-I-R-L-NH2], with less than 100 µM. Molecule YIRIYERE-NH2 [Y-I-R-I-Y-E-R-E-NH2] returned an inhibition constant Ki of less than 100 µM. Take [dTyr(Me)]IRLP-NH2 [y(Me)-I-R-L-P-NH2]: the Ki is less than 100 µM. As for XIRLP (N-(2-Me-nBu) on Y1; C-term NH2) [(2-Me-nBu)Y-I-R-L-P-NH2], the Ki was less than 100 µM.

For the molecule WLRLA-NH2 [W-L-R-L-A-NH2], the inhibition constant (Ki) was less than 100 µM. With YIRLMEMT-NH2 [Y-I-R-L-M-E-M-T-NH2], the Ki was less than 100 µM. Molecule Tfa-[(iBu)Y]I[Orn(N^δ-C3H7N)]LP-NH2 [Tfa-(iBu)Y-I-Orn(N^δ-C3H7N)-L-P-NH2] showed an inhibition constant Ki of less than 100 µM. In the case of XIRLP (N-term Ac; N-(1,2,3,6-4H-Bzl) on Y1; Y1=Y(SO3H); C-term NH2) [Ac-(1,2,3,6-4H-Bzl)Y(SO3H)-I-R-L-P-NH2], the inhibition constant Ki was less than 100 µM. Then Tfa-[(iBu)Y]I[Dab(N^γ-C3H7N)]LP-NH2 [Tfa-(iBu)Y-I-Dab(N^γ-C3H7N)-L-P-NH2], with less than 100 µM; and YIRLAAF-NH2 [Y-I-R-L-A-A-F-NH2], with less than 100 µM. With XIRLP (N-term Tfa; Y1=Y(Me) O-methyl tyrosine; C-term NH2) [Tfa-Y(Me)I-R-L-P-NH2] the figure was less than 100 µM; with XIRLP (N-(2-Me-Bzl) on Y1; C-term NH2) [(2-Me-Bzl)Y-I-R-L-P-NH2], less than 100 µM. XIRLP (N-(2-Me-nPentyl) on Y1; C-term NH2) [(2-Me-nPentyl)Y-I-R-L-P-NH2] showed a Ki of less than 100 µM. YIRVAQLY-NH2 [Y-I-R-V-A-Q-L-Y-NH2] showed a Ki of less than 100 µM.

In turn, YIRLP-NH2 [Y-I-R-L-P-NH2] returned a Ki of less than 100 µM.
